From patent US20250304640A1 (ORIKINE BIO SL, published 2025)
Numbering of substitutions follows the chain as printed. Names may count otherwise.

T1: IL-10 receptor (IL-10R: IL10RA and IL10RB) on HEK-Blue IL-10 reporter cells (UniProt Q13651 22-578; Q08334 20-325, limits assumed)
T1 sequence (looked up) 1: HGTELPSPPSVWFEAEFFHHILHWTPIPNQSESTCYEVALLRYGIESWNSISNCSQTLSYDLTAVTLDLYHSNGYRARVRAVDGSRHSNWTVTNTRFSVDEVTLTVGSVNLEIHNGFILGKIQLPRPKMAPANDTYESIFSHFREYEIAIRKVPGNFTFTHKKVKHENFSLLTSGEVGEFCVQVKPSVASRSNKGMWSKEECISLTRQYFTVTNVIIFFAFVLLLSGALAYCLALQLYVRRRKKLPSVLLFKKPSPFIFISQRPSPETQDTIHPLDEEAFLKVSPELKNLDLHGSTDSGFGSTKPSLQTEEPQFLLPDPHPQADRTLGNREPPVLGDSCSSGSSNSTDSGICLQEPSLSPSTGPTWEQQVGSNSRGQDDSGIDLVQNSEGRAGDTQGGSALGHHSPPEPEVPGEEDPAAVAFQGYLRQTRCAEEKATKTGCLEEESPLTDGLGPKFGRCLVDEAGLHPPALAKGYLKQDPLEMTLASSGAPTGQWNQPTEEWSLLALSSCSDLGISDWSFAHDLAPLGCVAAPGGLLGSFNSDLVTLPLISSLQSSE
T1 sequence (looked up) 2: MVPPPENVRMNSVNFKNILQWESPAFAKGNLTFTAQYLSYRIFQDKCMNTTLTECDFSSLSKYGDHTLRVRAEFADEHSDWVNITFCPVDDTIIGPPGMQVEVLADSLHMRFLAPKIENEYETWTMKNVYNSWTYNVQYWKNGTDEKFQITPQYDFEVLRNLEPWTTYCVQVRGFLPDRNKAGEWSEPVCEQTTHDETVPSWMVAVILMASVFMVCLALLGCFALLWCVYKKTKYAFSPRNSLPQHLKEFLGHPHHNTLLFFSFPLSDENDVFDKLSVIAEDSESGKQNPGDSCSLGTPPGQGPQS

T2: IL10RA (UniProt Q13651 22-578, limits assumed)
T2 sequence (looked up): T1 sequence (looked up) 1

B1: CSF1 (wild-type human CSF1) (ligand)
chain: EEVSEYCSHMIGSGHLQSLQRLIDSQMETSCQITFEFVDQEQLKDPVCYLKKAFLLVQDIMEDTMRFRDNTPNAIAIVQLQELSLRLKSCFTKDYEEHDKACVRTFYETPLQLLEKVKNVFNETKNLLDKDWNIFSKNCNNSFAECSSQD
B2: CSF1 A76I, V117L (ligand)
chain: B1 chain with A76I, V117L
B3: CSF1 H9F (ligand)
chain: B1 chain with H9F
B4: CSF1 Q79L (ligand)
chain: B1 chain with Q79L
B5: CSF1 V117I (ligand)
chain: B1 chain with V117I
B6: CSF1 V78W (ligand)
chain: B1 chain with V78W
B7: CSF1 S18Q (ligand)
chain: B1 chain with S18Q
B8: CSF1 V120I (ligand)
chain: B1 chain with V120I
B9: CSF1 Q17R (ligand)
chain: B1 chain with Q17R
B10: CSF1 Q81F (ligand)
chain: B1 chain with Q81F
B11: CSF1 E82K (ligand)
chain: B1 chain with E82K
B12: CSF1 (1-190) HiBiT (ligand)
chain: EEVSEYCSHMIGSGHLQSLQRLIDSQMETSCQITFEFVDQEQLKDPVCYLKKAFLLVQDIMEDTMRFRDNTPNAIAIVQLQELSLRLKSCFTKDYEEHDKACVRTFYETPLQLLEKVKNVFNETKNLLDKDWNIFSKNCNNSFAECSSQDGGVSGWRLFKKIS
B13: ORK10-002 (ligand)
chain: MTQSENSCTHFPGNLPNMLRDLRDAFSRVKTFFQMKDQLDNLLLKESLLEDFKGYLGCQALSEMIQFYLEEVMPQAENQDPDIKAHVNSLGENLKTLRLRLRRCHRFLPCENKSKAVEQVKNAFNKLQEKGIYKAMSEFDIFINYIEAYMTMNFGGLDYLPNMLRDLRDAFSRVKTFFQMKDQLDNLLLKESLLEDFKGYLGCQALSEMIQFYLEEVMPQAENQDPDIKAHVNSLGENLKTLRLRLRRCHRFLPCENKSKAVEQVKNAFNKLQEKGIYKAMSEFDIFINYIEAYMTM
B14: IL-10WT (wild-type human IL-10) (ligand)
chain: SPGQGTQSENSCTHFPGNLPNMLRDLRDAFSRVKTFFQMKDQLDNLLLKESLLEDFKGYLGCQALSEMIQFYLEEVMPQAENQDPDIKAHVNSLGENLKTLRLRLRRCHRFLPCENKSKAVEQVKNAFNKLQEKGIYKAMSEFDIFINYIEAYMTMKIRN
B15: Foldikine10 (ligand)
chain: MTQSENSCTHFPGNLPNMLRDLRDAFSRVKTFFQMKDQLDNLLLKESLLEDFKGYLGCQALSEMIQFYLEEVMPQAENQEPDIKAHVNSLGENLKTLRLRLRRCHRFLPCENKSKAVEQVKNAFNKLQEKGIYKAMSEFDIFINYIEAYMTMNNGGLDYLPNMLRDLRDAFSRVKTFFQMKDQLDNLLLKESLLEDFKGYLGCQALSEMIQFYLEEVMPQAENQDPDIKAHVNSLGENLKTLRLRLRRNHRFLPCENKSKAVEQVKNAFNKLQEKGIYKAMSEFDIFINYIEAYMTMKIRN
B16: ORK10-003-HiBit R24A (ligand)
chain: MTQSENSCTHFPGNLPNMLRDLRDAFSRVKTFFQMKDQLDNLLLKESLLEDFKGYLGCQALSEMIQFYLEEVMPQAENQDPDIKAHVNSLGENLKTLRLRLRRCHRFLPCENKSKAVEQVKNAFNKLQEKGIYKAMSEFDIFINYIEAYLYKTITPEFANMLADLRDAFSRVKTFFQMKDQLDNLLLKESLLEDFKGYLGCQALSEMIQFYLEEVMPQAENQDPDIKAHVNSLGENLKTLRLRLRRCHRFLPCENKSKAVEQVKNAFNKLQEKGIYKAMSEFDIFINYIEAYMTMGGVSGWRLFKKIS
B17: ORK10-003-HiBit K34A (ligand)
chain: B16 chain with A163R, K173A
B18: ORK10-003-HiBit Q38A (ligand)
chain: B16 chain with A163R, Q177A
B19: ORK10-003-HiBit D44A (ligand)
chain: B16 chain with A163R, D183A
B20: ORK10-003-HiBit E50A (ligand)
chain: B16 chain with A163R, E189A
B21: ORK10-003-HiBit D44N (ligand)
chain: B16 chain with A163R, D183N
B22: CSF1-25AA-IL10-HiBit (ligand)
chain: EEVSEYCSHMIGSGHLQSLQRLIDSQMETSCQITFEFVDQEQLKDPVCYLKKAFLLVQDIMEDTMRFRDNTPNAIAIVQLQELSLRLKSCFTKDYEEHDKACVRTFYETPLQLLEKVKNVFNETKNLLDKDWNIFSKNCNNSFAECSSQDGGGSGGSGGSGGSGGSGGSGGSGGGRASPGQGTQSENSCTHFPGNLPNMLRDLRDAFSRVKTFFQMKDQLDNLLLKESLLEDFKGYLGCQALSEMIQFYLEEVMPQAENQDPDIKAHVNSLGENLKTLRLRLRRCHRFLPCENKSKAVEQVKNAFNKLQEKGIYKAMSEFDIFINYIEAYMTMKIRNGGVSGWRLFKKIS

These binders were tested against CSF1 receptor (CSF1R) (UniProt P07333) (assay: cell-based or functional assay).
Chain of CSF1 receptor (CSF1R) (P07333 20-972 limits assumed): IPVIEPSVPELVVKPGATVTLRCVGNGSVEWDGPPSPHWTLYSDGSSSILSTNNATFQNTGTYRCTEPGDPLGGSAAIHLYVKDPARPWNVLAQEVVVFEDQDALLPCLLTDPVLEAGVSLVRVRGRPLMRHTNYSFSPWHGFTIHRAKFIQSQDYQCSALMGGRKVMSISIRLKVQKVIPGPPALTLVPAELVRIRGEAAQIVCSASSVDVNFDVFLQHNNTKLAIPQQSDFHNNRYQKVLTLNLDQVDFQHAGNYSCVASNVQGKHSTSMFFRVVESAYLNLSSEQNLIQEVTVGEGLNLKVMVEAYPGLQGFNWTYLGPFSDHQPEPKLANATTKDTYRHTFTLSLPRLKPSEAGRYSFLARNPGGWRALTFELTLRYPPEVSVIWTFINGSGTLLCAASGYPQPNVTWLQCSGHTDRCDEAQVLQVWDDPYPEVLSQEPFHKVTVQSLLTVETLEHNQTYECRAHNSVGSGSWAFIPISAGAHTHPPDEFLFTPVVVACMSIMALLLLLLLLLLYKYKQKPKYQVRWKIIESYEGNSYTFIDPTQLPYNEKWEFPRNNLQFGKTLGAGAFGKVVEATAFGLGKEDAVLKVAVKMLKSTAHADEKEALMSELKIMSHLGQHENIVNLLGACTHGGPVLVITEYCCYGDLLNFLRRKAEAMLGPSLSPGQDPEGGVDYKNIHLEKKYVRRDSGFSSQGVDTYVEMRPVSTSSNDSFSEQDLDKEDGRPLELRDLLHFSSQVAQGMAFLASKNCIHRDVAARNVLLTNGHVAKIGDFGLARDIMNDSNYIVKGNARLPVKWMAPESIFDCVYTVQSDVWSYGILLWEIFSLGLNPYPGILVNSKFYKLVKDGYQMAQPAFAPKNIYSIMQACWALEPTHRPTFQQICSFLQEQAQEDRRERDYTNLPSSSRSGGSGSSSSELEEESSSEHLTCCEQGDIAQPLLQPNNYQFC

Question: What does the source list for B1?
Answer: CSF1 EC-50, HEK293 CSF1R/SRE reporter: 7.34e-10; EC50, HEK293 CSF1R/SRE reporter, biological replica 1: 1.88e-09; EC50, HEK293 CSF1R/SRE reporter, biological replica 2: 5.58e-09; EC-50, HEK293 CSF1R/SRE reporter, biological replica 1: 4.52e-10; EC-50, HEK293 CSF1R/SRE reporter, biological replica 2: 3.37e-10; Max activation value, HEK293 CSF1R/SRE reporter, biological replica 1: 8.49; Max activation value, HEK293 CSF1R/SRE reporter, biological replica 2: 1.14

Question: With B2 as the binder, how does the EC-50, HEK293 CSF1R/SRE reporter, biological replica 1 read?
Answer: The EC-50, HEK293 CSF1R/SRE reporter, biological replica 1 was 1.18e-09.

Question: And the EC-50, HEK293 CSF1R/SRE reporter, biological replica 2?
Answer: Its EC-50, HEK293 CSF1R/SRE reporter, biological replica 2 is 5.97e-10.

Question: And the Max activation value, HEK293 CSF1R/SRE reporter, biological replica 1?
Answer: The Max activation value, HEK293 CSF1R/SRE reporter, biological replica 1 was 8.55.

Question: What about the Max activation value, HEK293 CSF1R/SRE reporter, biological replica 2 of the same binder?
Answer: The Max activation value, HEK293 CSF1R/SRE reporter, biological replica 2 was 1.14.

Question: What does the source list for B3?
Answer: EC50, HEK293 CSF1R/SRE reporter, biological replica 1: 2.66e-09; EC50, HEK293 CSF1R/SRE reporter, biological replica 2: 1.18e-08

Question: B4 was tested. Which EC50, HEK293 CSF1R/SRE reporter, biological replica 1 did it give?
Answer: The EC50, HEK293 CSF1R/SRE reporter, biological replica 1 was 6.76e-09.

Question: What about the EC50, HEK293 CSF1R/SRE reporter, biological replica 2 of the same binder?
Answer: The EC50, HEK293 CSF1R/SRE reporter, biological replica 2 was 1.28e-08.

Question: What does the source list for B5?
Answer: EC-50, HEK293 CSF1R/SRE reporter, biological replica 1: 1e-09; EC-50, HEK293 CSF1R/SRE reporter, biological replica 2: 4.37e-10; Max activation value, HEK293 CSF1R/SRE reporter, biological replica 1: 7.64; Max activation value, HEK293 CSF1R/SRE reporter, biological replica 2: 1.28

Question: Which EC50, HEK293 CSF1R/SRE reporter, biological replica 1 does the source give for B6 here?
Answer: The EC50, HEK293 CSF1R/SRE reporter, biological replica 1 was 6.23e-09.

Question: What about the EC50, HEK293 CSF1R/SRE reporter, biological replica 2 of the same binder?
Answer: Its EC50, HEK293 CSF1R/SRE reporter, biological replica 2 is 2.1e-08.

Question: Which EC50, HEK293 CSF1R/SRE reporter, biological replica 1 does the source give for B7 here?
Answer: Its EC50, HEK293 CSF1R/SRE reporter, biological replica 1 is 2.51e-09.

Question: What about the EC50, HEK293 CSF1R/SRE reporter, biological replica 2 of the same binder?
Answer: The EC50, HEK293 CSF1R/SRE reporter, biological replica 2 was 1.99e-08.

Question: For B8, which EC-50, HEK293 CSF1R/SRE reporter, biological replica 1 is on record?
Answer: Its EC-50, HEK293 CSF1R/SRE reporter, biological replica 1 is 8.8e-10.

Question: And the EC-50, HEK293 CSF1R/SRE reporter, biological replica 2?
Answer: Its EC-50, HEK293 CSF1R/SRE reporter, biological replica 2 is 4.43e-10.

Question: And the Max activation value, HEK293 CSF1R/SRE reporter, biological replica 1?
Answer: Its Max activation value, HEK293 CSF1R/SRE reporter, biological replica 1 is 8.86.

Question: What about the Max activation value, HEK293 CSF1R/SRE reporter, biological replica 2 of the same binder?
Answer: Its Max activation value, HEK293 CSF1R/SRE reporter, biological replica 2 is 1.37.

Question: Which EC50, HEK293 CSF1R/SRE reporter, biological replica 1 does the source give for B9 here?
Answer: Its EC50, HEK293 CSF1R/SRE reporter, biological replica 1 is 2.7e-09.

Question: What about the EC50, HEK293 CSF1R/SRE reporter, biological replica 2 of the same binder?
Answer: Its EC50, HEK293 CSF1R/SRE reporter, biological replica 2 is 7.94e-09.

Question: B10 was tested. Which EC50, HEK293 CSF1R/SRE reporter, biological replica 1 did it give?
Answer: The EC50, HEK293 CSF1R/SRE reporter, biological replica 1 was 1.08e-08.

Question: What about the EC50, HEK293 CSF1R/SRE reporter, biological replica 2 of the same binder?
Answer: Its EC50, HEK293 CSF1R/SRE reporter, biological replica 2 is 6.77e-08.

Question: Which results are given for B11?
Answer: EC50, HEK293 CSF1R/SRE reporter, biological replica 1: 1.27e-08; EC50, HEK293 CSF1R/SRE reporter, biological replica 2: 2.49e-08

Question: B12 was tested. Which EC-50, HEK293 CSF1R/SRE reporter did it give?
Answer: The EC-50, HEK293 CSF1R/SRE reporter was 1.45e-09.

Each binder was assayed against T1, IL-10 receptor (IL-10R: IL10RA and …) (assay: cell-based or functional assay).

Question: B13 was tested. Which “EC-50, HEK-Blue IL-10 reporter cells” value did it give?
Answer: Its value is 3.87e-10.

Question: B14 was tested. Which “EC-50, HEK-Blue IL-10 reporter cells” value did it give?
Answer: The value was 8.91e-10.

Question: With B15 as the binder, how does the “EC-50, HEK-Blue IL-10 reporter cells” value read?
Answer: The value was 6.01e-10.

The binders below were run against T2, IL10RA (assay: cell-based or functional assay).

Question: How did the “EC-50, HEK-Blue IL-10 reporter cells” value turn out when B16 was run?
Answer: Its value is 1.51e-10.

Question: Which “EC-50, HEK-Blue IL-10 reporter cells” value does the source give for B17 here?
Answer: Its value is 9.22e-10.

Question: B18 was tested. Which “EC-50, HEK-Blue IL-10 reporter cells” value did it give?
Answer: The value was 2.07e-10.

Question: For B19, which “EC-50, HEK-Blue IL-10 reporter cells” value is on record?
Answer: Its value is 2.01e-09.

Question: With B20 as the binder, how does the “EC-50, HEK-Blue IL-10 reporter cells” value read?
Answer: The value was 5.43e-11.

Question: For B21, which “EC-50, HEK-Blue IL-10 reporter cells” value is on record?
Answer: The value was 4.37e-10.

Molecular target: T1, IL-10 receptor (IL-10R: IL10RA and …)
Test: cell-based or functional assay
Remark: another data set of the same source

Question: How did the “EC-50 for IL10 activity, HEK-Blue IL-10 reporter cells” value turn out when B22 was run?
Answer: Its value is 4.1e-10.
